As usually defined, the Kd is the free concentration of one partner at which half of the binding sites on the other are occupied at equilibrium, for simple one-to-one binding. A low value points to a tighter complex.

In test [1] the target is T1, B-Raf kinase, P15056.
T1 chain: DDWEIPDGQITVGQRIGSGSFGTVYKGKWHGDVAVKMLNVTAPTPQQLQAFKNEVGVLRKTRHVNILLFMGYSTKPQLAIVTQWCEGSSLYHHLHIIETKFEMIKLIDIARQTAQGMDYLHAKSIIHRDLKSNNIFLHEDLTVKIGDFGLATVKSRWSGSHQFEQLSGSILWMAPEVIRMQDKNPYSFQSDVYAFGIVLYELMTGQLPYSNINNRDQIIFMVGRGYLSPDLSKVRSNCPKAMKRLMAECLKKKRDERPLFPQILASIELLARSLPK
Description: isothermal titration calorimetry. A general note: ITC needs no label: the signal is the heat of the interaction.

The target in test [2] is T1, B-Raf kinase, P15056. Description: intrinsic fluorescence titration, column head Kd (ITF) (µM).

Regarding GVLRKARHVNILLFMGYST (modifications not checked) [Peptide corresponding to SEQ ID NO: 8], the ΔS with B-Raf kinase, P15056 [1] is -28.4 J/mol·K.

For LRKTRHVNI (modifications not checked) [6257], the Kd with B-Raf kinase, P15056 [2] came out at 20 nM.

(Values after patent publication US20190382738A1.)
